One may read the Kd as the equilibrium constant for the complex coming apart. The term koff denotes the rate constant with which the complex falls apart. What is called kon is the rate constant with which the complex forms.

Assay [1] has as its target T1, recombinant human VCAM-1 domain 1-7/Fc chimera (R&D, 862-VC) (human, UniProt P19320 25-698).
T1 construct: domain: D1-D7; Bought; also called VD7; hVCAM-Fc-chimera; not shown: Fc of the bought chimera
T1 sequence (looked up): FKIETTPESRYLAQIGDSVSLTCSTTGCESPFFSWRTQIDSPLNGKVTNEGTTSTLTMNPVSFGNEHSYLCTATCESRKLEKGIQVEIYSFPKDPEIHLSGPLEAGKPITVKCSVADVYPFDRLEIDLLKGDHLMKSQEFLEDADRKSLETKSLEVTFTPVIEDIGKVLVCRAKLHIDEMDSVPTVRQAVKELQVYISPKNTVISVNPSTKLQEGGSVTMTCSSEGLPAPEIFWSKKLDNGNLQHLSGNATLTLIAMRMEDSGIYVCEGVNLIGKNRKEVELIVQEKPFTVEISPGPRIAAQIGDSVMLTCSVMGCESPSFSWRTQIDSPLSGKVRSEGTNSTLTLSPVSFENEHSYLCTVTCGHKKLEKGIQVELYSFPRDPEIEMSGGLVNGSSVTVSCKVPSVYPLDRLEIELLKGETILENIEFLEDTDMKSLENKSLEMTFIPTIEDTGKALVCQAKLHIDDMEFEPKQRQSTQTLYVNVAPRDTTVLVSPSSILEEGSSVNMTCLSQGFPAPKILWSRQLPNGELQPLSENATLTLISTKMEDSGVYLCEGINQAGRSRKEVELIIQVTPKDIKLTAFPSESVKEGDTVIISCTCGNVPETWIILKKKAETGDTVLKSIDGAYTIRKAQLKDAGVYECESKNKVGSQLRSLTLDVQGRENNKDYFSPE
Put plainly: BIACORE (SPR), VCAM1/Fc immobilised on CM5 chip, antibody as analyte, 1:1 binding model. The procedure:
(§1) Journal of Bioscience and Bioengineering Vol. 100, No. 3, 311-317, 2005).
(§2) For ligand immobilization to the sensor chip CM5, the chip should be first activated with a mixture of N-hydroxysuccinimide (NHS) and […] (Amine Coupling Kit, BR-1000-50) to prepare a NHS-ester-activated chip surface being highly reactive to amino group. 1 mg/ml of ligand to be immobilized was diluted in 97 μl of each sodium acetate solution (vary within the pH range from 4.0 to 5.5) at a dilution ratio of 3/100, and then applied at a flow rate of 10 μl/min for about 3 min (as a negative control, the ligand was diluted using a running buffer, HBS-EP buffer (BIACORE AB, Sweden) in the same manner). In order to immobilize the ligand at a predetermined value target RU (resonance unit), serial injection was carried out automatically, until reaching target RU. […] The final RU was determined by an immobilization report which provides a difference in RU values before and after injection of ethanolamine.
(§3) A flow cell 2-flow cell 1 mode provided by BIACORE instrument was employed in this experiment in order to remove non-specific binding. […] Through this procedure, an association/dissociation curve of the corresponding antigen and antibody was obtained, and an association/dissociation constant KD was calculated by BIAevaluation program (BIACORE AB, Sweden), as shown in FIG. 3.
A general note: Surface plasmon resonance follows binding to a sensor surface in real time, without labels.

Assay [2] deals with T1, recombinant human VCAM-1 domain 1-7/Fc …. Put plainly: BIACORE (SPR), recombinant VCAM1/Fc immobilised on sensor chip CM5, antibody as analyte, 1:1 binding model. How it is done: as §1, §2, §3

B1: 7HT antibody (VCAM-1 antibody, VCAM-1 Ab) (antibody, V domains shown)
VH: EVQLVQSGGDLVKPGESLRLSCAASGFTFNDAWMTWVRQPPGKGLEWVGRIKSTTDGGTTNYAAPVEGRFTISRDDSKNTLYLEMNSLRAEDTAVYYCARIPLFNHDSGGYHGAFDIWGQGTMVTVSS
VL: DIQMTQSPSSLAVSLGERATINCKSSQSVLYSSNNKNYLAWYQQKPGQPPKLLIYWASTRESGVPDRFSGSGSGTDFTLTISSLQPEDFASYYCQESYSAPYTFGQGTKVEIKR
notes: Human antibody, full IgG; also called VCAM-1 Ab (7HT); 7HT Ab
In the case of B1, in assay [1], the Kd was ~6.3 nM. Also, in assay [2], the koff is 0.00176 s⁻¹ and the kon worked out at 279000 M⁻¹ s⁻¹.

These data come from patent US20120276091A1 (HANWHA CHEMICAL, published 2012).
